B1: KLSEAVTSV (peptide)
peptide: KLSEAVTSV
B2: KLYDLELIV (peptide)
peptide: KLYDLELIV
B3: LLADIGGDPFAA (peptide)
peptide: LLADIGGDPFAA
B4: LLHEENFSV (peptide)
peptide: LLHEENFSV
B5: LLIDDEYKV (peptide)
peptide: LLIDDEYKV
B6: NLASFIEQVAV (peptide)
peptide: NLASFIEQVAV
B7: NVFDGLVRV (peptide)
peptide: NVFDGLVRV
B8: QLTPVLVSV (peptide)
peptide: QLTPVLVSV
B9: RILPKVLEV (peptide)
peptide: RILPKVLEV
B10: RLAAFYSQV (peptide)
peptide: RLAAFYSQV
B11: RLFEENDVNL (peptide)
peptide: RLFEENDVNL
B12: RLLDVLAPLV (peptide)
peptide: RLLDVLAPLV
B13: RLPDIPLRQV (peptide)
peptide: RLPDIPLRQV
B14: RLPPDTLLQQV (peptide)
peptide: RLPPDTLLQQV
B15: RMSDVVKGV (peptide)
peptide: RMSDVVKGV
B16: SICNGVPMV (peptide)
peptide: SICNGVPMV
B17: SLLSPEHLQYL (peptide)
peptide: SLLSPEHLQYL
B18: SLWEGGVRGV (peptide)
peptide: SLWEGGVRGV
B19: SLWSVARGV (peptide)
peptide: SLWSVARGV
B20: SMGDHLWVA (peptide)
peptide: SMGDHLWVA
B21: SVWFGPKEV (peptide)
peptide: SVWFGPKEV
B22: TLAAIIHGA (peptide)
peptide: TLAAIIHGA
B23: TLLKKISEA (peptide)
peptide: TLLKKISEA
B24: TLYALSHAV (peptide)
peptide: TLYALSHAV
B25: TVMDIDTSGTFNV (peptide)
peptide: TVMDIDTSGTFNV
B26: VLSQVYSKV (peptide)
peptide: VLSQVYSKV
B27: VVLDDKDYFL (peptide)
peptide: VVLDDKDYFL
B28: YAFPKSITV (peptide)
peptide: YAFPKSITV
B29: YLDDEKNWGL (peptide)
peptide: YLDDEKNWGL
B30: YLDKNLTVSV (peptide)
peptide: YLDKNLTVSV
B31: YLITGNLEKL (peptide)
peptide: YLITGNLEKL
B32: YLWDLDHGFAGV (peptide)
peptide: YLWDLDHGFAGV
B33: TLLDSPIKV (peptide)
peptide: TLLDSPIKV
B34: SQADVIPAV (peptide)
peptide: SQADVIPAV
B35: ALHEEVVGV (peptide)
peptide: ALHEEVVGV
B36: ALLEMDARL (peptide)
peptide: ALLEMDARL
B37: ALLGKIEKV (peptide)
peptide: ALLGKIEKV
B38: ALLNQHYQV (peptide)
peptide: ALLNQHYQV
B39: ALSSKPAEV (peptide)
peptide: ALSSKPAEV
B40: GLAPGGLAVV (peptide)
peptide: GLAPGGLAVV
B41: HLAKVTAEV (peptide)
peptide: HLAKVTAEV
B42: KLDNNLDSV (peptide)
peptide: KLDNNLDSV
B43: KLTDHLKYV (peptide)
peptide: KLTDHLKYV
B44: QLLPNLRAV (peptide)
peptide: QLLPNLRAV
B45: RLFPDGIVTV (peptide)
peptide: RLFPDGIVTV
B46: RLLDEQFAV (peptide)
peptide: RLLDEQFAV
B47: RLTESVLYL (peptide)
peptide: RLTESVLYL
B48: RMLIKLLEV (peptide)
peptide: RMLIKLLEV
B49: SILDIVTKV (peptide)
peptide: SILDIVTKV
B50: SLAESSFDV (peptide)
peptide: SLAESSFDV
B51: SLAVLVPIV (peptide)
peptide: SLAVLVPIV
B52: SLFEWFHPL (peptide)
peptide: SLFEWFHPL
B53: SLHNGVIQL (peptide)
peptide: SLHNGVIQL
B54: SLIPAVLTV (peptide)
peptide: SLIPAVLTV
B55: SLLNFLQHL (peptide)
peptide: SLLNFLQHL
B56: TLAELGAVQV (peptide)
peptide: TLAELGAVQV
B57: TLFEHLPHI (peptide)
peptide: TLFEHLPHI
B58: VLDEPYEKV (peptide)
peptide: VLDEPYEKV
B59: YIFTTPKSV (peptide)
peptide: YIFTTPKSV
B60: YLGPHIASVTL (peptide)
peptide: YLGPHIASVTL
B61: YLLEKFVAV (peptide)
peptide: YLLEKFVAV
B62: YLLHFPMAL (peptide)
peptide: YLLHFPMAL
B63: VVLDGGQIVTV (peptide)
peptide: VVLDGGQIVTV
B64: ALFPALRPGGFQA (peptide)
peptide: ALFPALRPGGFQA
B65: VLLAQIIQV (peptide)
peptide: VLLAQIIQV
B66: KMFESFIESV (peptide)
peptide: KMFESFIESV
B67: ALADKELLPSV (peptide)
peptide: ALADKELLPSV
B68: ALRGEIETV (peptide)
peptide: ALRGEIETV
B69: FLLGFIPAKA (peptide)
peptide: FLLGFIPAKA
B70: FLWERPTLLV (peptide)
peptide: FLWERPTLLV
B71: GLFAPVHKV (peptide)
peptide: GLFAPVHKV
B72: GLLDNPELRV (peptide)
peptide: GLLDNPELRV
B73: KLISSYYNV (peptide)
peptide: KLISSYYNV
B74: KLNDLIQRL (peptide)
peptide: KLNDLIQRL
B75: RTIEYLEEV (peptide)
peptide: RTIEYLEEV

Biological target: HLA-A*02 (human)
Test: UV-ligand exchange, anti-b2m ELISA; grade: exchange yield >=50%

| Binder | peptide exchange yield [%] |
| --- | --- |
| B1 | 50 to 75 |
| B2 | 50 to 75 |
| B3 | 50 to 75 |
| B4 | 50 to 75 |
| B5 | 50 to 75 |
| B6 | 50 to 75 |
| B7 | 50 to 75 |
| B8 | 50 to 75 |
| B9 | 50 to 75 |
| B10 | 50 to 75 |
| B11 | 50 to 75 |
| B12 | 50 to 75 |
| B13 | 50 to 75 |
| B14 | 50 to 75 |
| B15 | 50 to 75 |
| B16 | 50 to 75 |
| B17 | 50 to 75 |
| B18 | 50 to 75 |
| B19 | 50 to 75 |
| B20 | 50 to 75 |
| B21 | 50 to 75 |
| B22 | 50 to 75 |
| B23 | 50 to 75 |
| B24 | 50 to 75 |
| B25 | 50 to 75 |

| Binder | peptide exchange yield [%] |
| --- | --- |
| B26 | 50 to 75 |
| B27 | 50 to 75 |
| B28 | 50 to 75 |
| B29 | 50 to 75 |
| B30 | 50 to 75 |
| B31 | 50 to 75 |
| B32 | 50 to 75 |
| B33 | 50 to 75 |
| B34 | 50 to 75 |
| B35 | 50 to 75 |
| B36 | 50 to 75 |
| B37 | 50 to 75 |
| B38 | 50 to 75 |
| B39 | 50 to 75 |
| B40 | 50 to 75 |
| B41 | 50 to 75 |
| B42 | 50 to 75 |
| B43 | 50 to 75 |
| B44 | 50 to 75 |
| B45 | 50 to 75 |
| B46 | 50 to 75 |
| B47 | 50 to 75 |
| B48 | 50 to 75 |
| B49 | 50 to 75 |
| B50 | 50 to 75 |

| Binder | peptide exchange yield [%] |
| --- | --- |
| B51 | 50 to 75 |
| B52 | 50 to 75 |
| B53 | 50 to 75 |
| B54 | 50 to 75 |
| B55 | 50 to 75 |
| B56 | 50 to 75 |
| B57 | 50 to 75 |
| B58 | 50 to 75 |
| B59 | 50 to 75 |
| B60 | 50 to 75 |
| B61 | 50 to 75 |
| B62 | 50 to 75 |
| B63 | 50 to 75 |
| B64 | 50 to 75 |
| B65 | 50 to 75 |
| B66 | 50 to 75 |
| B67 | 50 to 75 |
| B68 | 50 to 75 |
| B69 | 50 to 75 |
| B70 | 50 to 75 |
| B71 | 50 to 75 |
| B72 | 50 to 75 |
| B73 | 50 to 75 |
| B74 | 50 to 75 |
| B75 | 50 to 75 |

From US20160250307A1 (IMMATICS BIOTECHNOLOGIES, published 2016)
